We go through 2 substances from patent US5814603A, “Compounds with PTH activity” (Affymax Technologies N.V., priority 1993, dated 1998).

One data set addresses T1, PTH receptor (Rattus norvegicus, UniProt P25961).
T1 construct: host or cells: UMR106 rat osteosarcoma cells
T1 sequence (P25961 27-591): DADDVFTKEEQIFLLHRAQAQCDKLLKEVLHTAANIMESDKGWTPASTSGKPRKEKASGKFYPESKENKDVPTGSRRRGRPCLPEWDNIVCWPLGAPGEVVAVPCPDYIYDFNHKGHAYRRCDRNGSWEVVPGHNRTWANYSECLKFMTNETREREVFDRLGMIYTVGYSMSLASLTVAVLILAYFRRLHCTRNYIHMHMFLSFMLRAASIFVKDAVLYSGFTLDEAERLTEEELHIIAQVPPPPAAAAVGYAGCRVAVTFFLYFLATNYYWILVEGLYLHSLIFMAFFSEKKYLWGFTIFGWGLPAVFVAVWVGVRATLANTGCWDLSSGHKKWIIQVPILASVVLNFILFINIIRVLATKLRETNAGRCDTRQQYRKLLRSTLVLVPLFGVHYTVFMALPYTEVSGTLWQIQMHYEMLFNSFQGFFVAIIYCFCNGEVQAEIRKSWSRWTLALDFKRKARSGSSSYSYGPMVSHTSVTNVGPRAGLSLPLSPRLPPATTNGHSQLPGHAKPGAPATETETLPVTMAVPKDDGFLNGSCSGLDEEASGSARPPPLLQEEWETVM
The experiment in a line: PTH analog activity assay: intracellular cAMP concentration in UMR106 cells. Type of data set: cell-based. The conditions noted are these: rat osteosarcoma cell line UMR106, cAMP by scintillation proximity assay, 1 mM IBMX, 5 minutes at room temperature. Here is the method:
PTH concentrations were determined by OD280 using an extinction coefficient of 6600 for the recombinant peptide and 5500 for the synthetic peptide. The rat osteosarcoma cell line UMR106 (ATCC CRL 1661) was used for in vitro testing of the peptide's ability to activate the PTH receptor. Activation of the PTH receptor leads to an intracellular rise in cAMP concentration.
The UMR106 cells were plated at 1.2×10^5 per well in a 48 well dish. The media (DMEM with fetal calf serum) was removed, and 1 mL of fresh media was applied. PTH (recombinant or synthetic) at various concentrations and 3-isobutyl-1-methyl xanthine (IBMX) at 1 mM final concentration were then added to each well of the plate, which was then incubated for 5 minutes at room temperature. The media was then removed and the cells quickly washed with PBS. The cells were then extracted three times with 1 mL of absolute ethanol. The three extractions were combined and the ethanol removed by evaporation in a "speed vac" centrifuge. The extract was then redissolved in 0.5 mL of buffer (0.05M NaAcetate, pH=5.8, and 0.01% azide). The cAMP concentration was determined by scintillation proximity assay using a kit available from Amersham.
A general note: SPA uses beads or plates that emit light when radiolabelled molecules are held near them.

The nature of data set [1]: Isoelectric focusing (IEF) of the purified peptide. The class given is physicochemical. The conditions noted are these: HPLC-purified peptide after CNBr cleavage. The procedure: The precipitated PTH polymer was then dissolved in 70% formic acid, and a 500-fold (100 to 1000-fold excess can be used) molar excess of CNBr was added. […] After CNBr cleavage, the peptides were lyophilized and resuspended in distilled water. The peptide was purified resuspended in Buffer A (0.1% TFA) and further purified by HPLC using a VYDAC C-18 Hamilton semi-preparative column. Approximately 30 mg of peptide was injected onto the column. The peptide was then eluted with a gradient of 20-40% acetonitrile/0.1% TFA over 40 minutes. The major peak, eluting at approximately 15 minutes, was collected and lyophilized to dryness. Analysis of this peptide by SDS-PAGE and IEF indicated a single species of approximately 4000 daltons with an isoelectric point of approximately 8.7.

The target of another data set is T2, full length PTH-R (Didelphis virginiana, UniProt P25107).
T2 construct: host or cells: native opossum kidney cells
The conditions noted are these: native opossom kidney cells; Juppner et al. (1991); cited from earlier work.

Ends that are not written are not given here.

T2 sequence (P25107 27-585): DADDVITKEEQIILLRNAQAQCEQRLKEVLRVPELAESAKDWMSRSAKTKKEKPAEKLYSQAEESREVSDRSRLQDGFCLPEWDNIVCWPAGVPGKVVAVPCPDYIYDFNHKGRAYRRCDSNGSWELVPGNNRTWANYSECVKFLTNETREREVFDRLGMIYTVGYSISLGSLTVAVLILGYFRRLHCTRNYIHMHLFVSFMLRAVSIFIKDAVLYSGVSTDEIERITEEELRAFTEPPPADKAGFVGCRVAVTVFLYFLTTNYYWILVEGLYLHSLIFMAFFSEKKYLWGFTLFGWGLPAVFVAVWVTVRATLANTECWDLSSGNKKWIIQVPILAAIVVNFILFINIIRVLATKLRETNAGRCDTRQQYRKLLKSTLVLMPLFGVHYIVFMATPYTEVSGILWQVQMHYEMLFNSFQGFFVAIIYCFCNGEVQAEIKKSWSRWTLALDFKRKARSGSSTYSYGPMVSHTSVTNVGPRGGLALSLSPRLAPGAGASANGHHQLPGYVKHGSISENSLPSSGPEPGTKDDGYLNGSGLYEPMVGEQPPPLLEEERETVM

On to “recombinant PTH analog: 35 amino acid Ho/Hol PTH analog (SEQ ID NO:4/5) from CNBr cleavage of 8-mer fusion protein expressed from pBAD/PTH/OC in E. coli (SVSEIQLLHNLGKHLNSLERVEWLRKKLQDVHNYX; X: randomised place (mixture); also: X35: homoserine or homoserine lactone (mixture))”, for which, in the data set with PTH receptor, the “activity relative to synthetic human PTH (more active)” value is recorded as 2-to-10 fold. The isoelectric point entry in data set [1] is on record as “approximately 8.7”. In the case of “PTH (1-34): PTH ligand bound by the native full length PTH receptor, per Juppner et al. 1991”, the dissociation constant (Kd) with full length PTH-R is around 0.5 nM.

For orientation: Kd means the equilibrium constant for the complex coming apart.
